This experiment has as its target Mu8.1 conotoxin from Conus mucronatus (Conus mucronatus). In words: crystal structure.

Results on one substance are retold here after article PMC10478764.

For “Mu8.1 conotoxin from Conus mucronatus (natural protein)”, the stoichiometry N was 2.

One may read the stoichiometry N as a count of units in the complex or per binding partner.
